Target: HER2 (recombinant human HER2 standard) (human, UniProt P04626 23-652)
Experiment: electrochemiluminescence aptasensor; aptamer immobilized on MoS2-NS, BSA blocked; [Ru(bpy)3]2+/CD read-out; LOD 1.84 fg/mL (not a Kd); HER2 diluted in 10 mM phosphate buffer, 0.4 M NaCl, pH 7.4; BSA-blocked electrode; incubation temperature not given in the material
Conditions: protein: recombinant

B1: Apt-SH (HER2 aptamer) (ssDNA)
DNA: AACCGCCCAAATCCCTAAGAGTCTGCACTTGTCATTTTGTATATGTATTTGGTTTTTGGCTCTCACAGACACACTACACACGCACA
modifications: 5'-SH-(CH2)6 thiol
  binding result: binds
